Tested on: Escherichia coli TOP10
Assay: shrunken log2 fold change of peptide-encoding DNA abundance (4.5 h post-induction vs induction); higher = less antimicrobial activity (less host growth inhibition)
Conditions: time post-induction: 4.5 h; library: site-saturation at positions 5, 18, 19, 20
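Also: peptides expressed intracellularly from a pBAD plasmid library in pooled LB shake-flask culture, induced with 0.3% L-arabinose, DNA abundance read by NGS, three biological replicates, DESeq2 with apeglm shrinkage.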

Row | Sequence | shrunken log2 fold change
1 | RRIRQRPPRLPRPRPRPFNRPRP | -0.0328
2 | RRIRQRPPRLPRPRPRPFQCPRP | -0.247
3 | RRIRQRPPRLPRPRPRPFQEPRP | -0.0113
4 | RRIRQRPPRLPRPRPRPFQWPRP | 0.0154
5 | RRIRQRPPRLPRPRPRPFSQPRP | 0.0178
6 | RRIRQRPPRLPRPRPRPFSVPRP | -0.199
7 | RRIRQRPPRLPRPRPRPFTNPRP | -0.0235
8 | RRIRQRPPRLPRPRPRPFTSPRP | -0.00281
9 | RRIRQRPPRLPRPRPRPFVKPRP | -0.234
10 | RRIRQRPPRLPRPRPRPFWAPRP | 0.289
11 | RRIRQRPPRLPRPRPRPFWIPRP | -0.0587
12 | RRIRQRPPRLPRPRPRPFWPPRP | 0.083
13 | RRIRQRPPRLPRPRPRPFWWPRP | 0.0308
14 | RRIRQRPPRLPRPRPRPFYIPRP | 0.0172
15 | RRIRQRPPRLPRPRPRPGAKPRP | 0.177
16 | RRIRQRPPRLPRPRPRPGASPRP | 0.326
17 | RRIRQRPPRLPRPRPRPGCLPRP | 0.129
18 | RRIRQRPPRLPRPRPRPGDMPRP | -0.164
19 | RRIRQRPPRLPRPRPRPGDTPRP | -0.223
20 | RRIRQRPPRLPRPRPRPGEAPRP | 0.271
21 | RRIRQRPPRLPRPRPRPGEIPRP | -0.366
22 | RRIRQRPPRLPRPRPRPGFCPRP | 0.159
23 | RRIRQRPPRLPRPRPRPGGLPRP | 0.28
24 | RRIRQRPPRLPRPRPRPGIVPRP | 0.0144
25 | RRIRQRPPRLPRPRPRPGIYPRP | -0.0206

Row | Sequence | shrunken log2 fold change
26 | RRIRQRPPRLPRPRPRPGKYPRP | -0.17
27 | RRIRQRPPRLPRPRPRPGLLPRP | -0.0475
28 | RRIRQRPPRLPRPRPRPGNFPRP | 0.0262
29 | RRIRQRPPRLPRPRPRPGNTPRP | 0.0649
30 | RRIRQRPPRLPRPRPRPGPHPRP | 0.0856
31 | RRIRQRPPRLPRPRPRPGPIPRP | 0.253
32 | RRIRQRPPRLPRPRPRPGQCPRP | -0.156
33 | RRIRQRPPRLPRPRPRPGQPPRP | 0.385
34 | RRIRQRPPRLPRPRPRPGSVPRP | 0.241
35 | RRIRQRPPRLPRPRPRPGVKPRP | 0.0204
36 | RRIRQRPPRLPRPRPRPGVNPRP | -0.343
37 | RRIRQRPPRLPRPRPRPGWAPRP | 0.113
38 | RRIRQRPPRLPRPRPRPGWGPRP | 0.957
39 | RRIRQRPPRLPRPRPRPGWHPRP | 0.0202
40 | RRIRQRPPRLPRPRPRPGWKPRP | 0.115
41 | RRIRQRPPRLPRPRPRPHAYPRP | -0.352
42 | RRIRQRPPRLPRPRPRPHCNPRP | -0.11
43 | RRIRQRPPRLPRPRPRPHCSPRP | -0.104
44 | RRIRQRPPRLPRPRPRPHDIPRP | 0.0769
45 | RRIRQRPPRLPRPRPRPHFNPRP | -0.324
46 | RRIRQRPPRLPRPRPRPHGQPRP | 0.184
47 | RRIRQRPPRLPRPRPRPHIVPRP | -0.225
48 | RRIRQRPPRLPRPRPRPHKMPRP | 0.246
49 | RRIRQRPPRLPRPRPRPHLPPRP | 0.0272
50 | RRIRQRPPRLPRPRPRPHMYPRP | -0.706

Row | Sequence | shrunken log2 fold change
51 | RRIRQRPPRLPRPRPRPHQEPRP | -0.00692
52 | RRIRQRPPRLPRPRPRPHQSPRP | 0.0405
53 | RRIRQRPPRLPRPRPRPHQWPRP | 0.323
54 | RRIRQRPPRLPRPRPRPHSDPRP | 0.0233
55 | RRIRQRPPRLPRPRPRPHSNPRP | -0.0311
56 | RRIRQRPPRLPRPRPRPHSPPRP | 0.000964
57 | RRIRQRPPRLPRPRPRPHSRPRP | -0.17
58 | RRIRQRPPRLPRPRPRPHSSPRP | -0.271
59 | RRIRQRPPRLPRPRPRPHSYPRP | 0.0443
60 | RRIRQRPPRLPRPRPRPHTNPRP | -0.814
61 | RRIRQRPPRLPRPRPRPHWHPRP | -0.465
62 | RRIRQRPPRLPRPRPRPHWIPRP | -0.452
63 | RRIRQRPPRLPRPRPRPIDQPRP | -0.0135
64 | RRIRQRPPRLPRPRPRPIFKPRP | -0.208
65 | RRIRQRPPRLPRPRPRPIFTPRP | -0.123
66 | RRIRQRPPRLPRPRPRPIGLPRP | -0.00141
67 | RRIRQRPPRLPRPRPRPIHNPRP | -0.464
68 | RRIRQRPPRLPRPRPRPIICPRP | 0.0208
69 | RRIRQRPPRLPRPRPRPIIDPRP | -0.199
70 | RRIRQRPPRLPRPRPRPIIGPRP | -0.161
71 | RRIRQRPPRLPRPRPRPINLPRP | -0.123
72 | RRIRQRPPRLPRPRPRPIQVPRP | -0.201
73 | RRIRQRPPRLPRPRPRPISKPRP | -0.0725
74 | RRIRQRPPRLPRPRPRPITVPRP | -0.143
75 | RRIRQRPPRLPRPRPRPIVFPRP | 0.161

Row | Sequence | shrunken log2 fold change
76 | RRIRQRPPRLPRPRPRPIWRPRP | -0.068
77 | RRIRQRPPRLPRPRPRPIYIPRP | -0.46
78 | RRIRQRPPRLPRPRPRPIYLPRP | -0.163
79 | RRIRQRPPRLPRPRPRPKADPRP | 0.143
80 | RRIRQRPPRLPRPRPRPKCYPRP | -0.234
81 | RRIRQRPPRLPRPRPRPKFRPRP | 0.0034
82 | RRIRQRPPRLPRPRPRPKGIPRP | 0.0655
83 | RRIRQRPPRLPRPRPRPKHAPRP | 0.401
84 | RRIRQRPPRLPRPRPRPKHVPRP | -0.067
85 | RRIRQRPPRLPRPRPRPKIAPRP | 0.278
86 | RRIRQRPPRLPRPRPRPKLSPRP | 0.00202
87 | RRIRQRPPRLPRPRPRPKMKPRP | -0.08
88 | RRIRQRPPRLPRPRPRPKPWPRP | 0.502
89 | RRIRQRPPRLPRPRPRPKQAPRP | 0.0135
90 | RRIRQRPPRLPRPRPRPKQDPRP | 0.0446
91 | RRIRQRPPRLPRPRPRPKQPPRP | 0.0884
92 | RRIRQRPPRLPRPRPRPKQTPRP | -0.0544
93 | RRIRQRPPRLPRPRPRPKRAPRP | 0.0973
94 | RRIRQRPPRLPRPRPRPKRHPRP | -0.0733
95 | RRIRQRPPRLPRPRPRPKRIPRP | -0.0308
96 | RRIRQRPPRLPRPRPRPKRVPRP | -0.154
97 | RRIRQRPPRLPRPRPRPKSQPRP | 0.32
98 | RRIRQRPPRLPRPRPRPKVQPRP | 0.0205
99 | RRIRQRPPRLPRPRPRPKWYPRP | -0.118
100 | RRIRQRPPRLPRPRPRPLAGPRP | 0.166

Row | Sequence | shrunken log2 fold change
101 | RRIRQRPPRLPRPRPRPLAMPRP | 0.294
102 | RRIRQRPPRLPRPRPRPLFAPRP | 0.013
103 | RRIRQRPPRLPRPRPRPLFDPRP | -0.607
104 | RRIRQRPPRLPRPRPRPLGSPRP | 0.0483
105 | RRIRQRPPRLPRPRPRPLHDPRP | -0.346
106 | RRIRQRPPRLPRPRPRPLHTPRP | 0.0932
107 | RRIRQRPPRLPRPRPRPLIKPRP | -0.249
108 | RRIRQRPPRLPRPRPRPLIWPRP | 0.855
109 | RRIRQRPPRLPRPRPRPLLHPRP | -0.182
110 | RRIRQRPPRLPRPRPRPLLIPRP | -0.141
111 | RRIRQRPPRLPRPRPRPLLVPRP | -0.295
112 | RRIRQRPPRLPRPRPRPLMNPRP | -0.131
113 | RRIRQRPPRLPRPRPRPLNCPRP | -0.0264
114 | RRIRQRPPRLPRPRPRPLNVPRP | -0.0218
115 | RRIRQRPPRLPRPRPRPLQLPRP | -0.126
116 | RRIRQRPPRLPRPRPRPLQSPRP | -0.0698
117 | RRIRQRPPRLPRPRPRPLTKPRP | 0.184
118 | RRIRQRPPRLPRPRPRPLVFPRP | -0.0658
119 | RRIRQRPPRLPRPRPRPLVVPRP | 0.0686
120 | RRIRQRPPRLPRPRPRPMAAPRP | 0.127
121 | RRIRQRPPRLPRPRPRPMDNPRP | -0.367
122 | RRIRQRPPRLPRPRPRPMDVPRP | -0.0102
123 | RRIRQRPPRLPRPRPRPMIDPRP | -0.517
124 | RRIRQRPPRLPRPRPRPMKDPRP | -0.447
125 | RRIRQRPPRLPRPRPRPMLKPRP | -0.106

Row | Sequence | shrunken log2 fold change
126 | RRIRQRPPRLPRPRPRPMMYPRP | 0.0473
127 | RRIRQRPPRLPRPRPRPMNDPRP | -0.227
128 | RRIRQRPPRLPRPRPRPMPHPRP | -0.0205
129 | RRIRQRPPRLPRPRPRPMPSPRP | -0.162
130 | RRIRQRPPRLPRPRPRPMPTPRP | 0.0311
131 | RRIRQRPPRLPRPRPRPMQHPRP | -0.165
132 | RRIRQRPPRLPRPRPRPMREPRP | 0.0211
133 | RRIRQRPPRLPRPRPRPMRKPRP | 0.0266
134 | RRIRQRPPRLPRPRPRPMSHPRP | 0.00245
135 | RRIRQRPPRLPRPRPRPMTQPRP | -0.0451
136 | RRIRQRPPRLPRPRPRPMVRPRP | -0.17
137 | RRIRQRPPRLPRPRPRPMWPPRP | 0.269
138 | RRIRQRPPRLPRPRPRPMWRPRP | 0.279
139 | RRIRQRPPRLPRPRPRPMWSPRP | 0.0215
140 | RRIRQRPPRLPRPRPRPMWTPRP | 0.158
141 | RRIRQRPPRLPRPRPRPMYVPRP | -0.0439
142 | RRIRQRPPRLPRPRPRPNAAPRP | 0.0416
143 | RRIRQRPPRLPRPRPRPNALPRP | 0.023
144 | RRIRQRPPRLPRPRPRPNASPRP | -0.015
145 | RRIRQRPPRLPRPRPRPNATPRP | 0.251
146 | RRIRQRPPRLPRPRPRPNCKPRP | -0.555
147 | RRIRQRPPRLPRPRPRPNEEPRP | 2.87
148 | RRIRQRPPRLPRPRPRPNEIPRP | -0.217
149 | RRIRQRPPRLPRPRPRPNHAPRP | -0.474
150 | RRIRQRPPRLPRPRPRPNHNPRP | -0.893

Source: the supplement of paper PMC9112550, “Optimization of the antimicrobial peptide Bac7 by deep mutational scanning” (BMC Biology, 2022)
